# Experimental data reported in patent publication US20220289841A1 (CHILDREN S HOSPITAL OF PHILADELPHIA, published 2022).
# T1: full-length CD22 (UniProt P20273 20-847, limits assumed)
# T1 construct: Re-expressed in OCI-Ly10 cells whose endogenous CD22 was deleted by CRISPR; also called CD22 full length (FL); CD22-full length
# T1 sequence (looked up): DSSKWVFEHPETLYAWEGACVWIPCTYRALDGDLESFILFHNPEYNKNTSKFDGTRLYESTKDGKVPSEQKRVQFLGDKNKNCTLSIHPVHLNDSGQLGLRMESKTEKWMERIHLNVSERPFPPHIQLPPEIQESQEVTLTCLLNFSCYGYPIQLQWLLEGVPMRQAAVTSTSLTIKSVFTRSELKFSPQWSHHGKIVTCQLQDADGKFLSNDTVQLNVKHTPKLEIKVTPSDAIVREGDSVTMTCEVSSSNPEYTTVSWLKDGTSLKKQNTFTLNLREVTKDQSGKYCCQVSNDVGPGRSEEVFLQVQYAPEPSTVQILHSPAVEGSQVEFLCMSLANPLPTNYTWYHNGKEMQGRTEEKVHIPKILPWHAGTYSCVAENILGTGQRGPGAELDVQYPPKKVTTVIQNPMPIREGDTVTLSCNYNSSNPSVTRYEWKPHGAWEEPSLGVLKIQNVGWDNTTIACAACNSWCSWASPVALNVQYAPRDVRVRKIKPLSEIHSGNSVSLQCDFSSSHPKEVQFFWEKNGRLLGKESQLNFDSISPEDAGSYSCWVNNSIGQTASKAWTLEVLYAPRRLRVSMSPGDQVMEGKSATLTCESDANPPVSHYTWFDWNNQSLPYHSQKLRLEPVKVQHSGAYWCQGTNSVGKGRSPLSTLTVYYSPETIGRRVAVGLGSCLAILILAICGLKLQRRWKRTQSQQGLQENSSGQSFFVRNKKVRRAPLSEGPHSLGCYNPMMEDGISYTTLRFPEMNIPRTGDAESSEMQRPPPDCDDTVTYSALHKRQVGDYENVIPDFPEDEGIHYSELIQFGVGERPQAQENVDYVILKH
# B1: Clone 11F11 monoclonal antibody against CD22 Δex5-6 (antibody, V domains shown)
# VH: RVQLQQPGADLVRPGASVKLSCKASGYTFTSYWMSWVKQRPGQGLEWIGMIDPSDSEAHYNQMFRDKATLTVDNSSSTAYMVLSSLTSEDSAVYYCSNDFDYWGQGTTLTVSS
# VL: not shown
# notes: Mouse hybridoma antibody, from BALB/C mice immunized with a peptide containing the exon 4/exon 7 junction; No isotype is stated for the clone; also called the mAb; CD22 Δex5-6 antibody
# Target: T1, full-length CD22
# Test: OCI-Ly10 cells with endogenous CD22 deleted by CRISPR, reconstituted with full-length CD22; Western blot (FIG. 5B)
# Excerpt: One top event was the increased skipping of exon 5-6 (Δex5-6) in CD22 in B-ALL. The inventors validated the RNA expression of this event in 18 out of 18 primary B-ALL samples with RT-PCR. And using Nanopore-based long read RNA sequencing, they confirmed the Δex5-6 event exists within a larger translatable transcript in B-ALL cell lines and B-ALL patient-derived xenografts (PDX). BALB/C mice were then immunized against a peptide containing the junction site of exon 4 and 7 to generate hybridomas and obtain a monoclonal antibody (mAb) against CD22 Δex5-6. To validate the specificity of the identified mAb, the inventors used CRISPR to delete endogenous CD22 in OCI-Ly10 cells and reconstituted the cells with either CD22 Δex5-6 or full length CD22. […] The inventors also validated that this mAb specifically binds to endogenously expressed CD22 Δex5-6 in multiple B-ALL cell lines and B-ALL patient-derived xenografts (PDX) by immunoprecipitation and Western blot analysis. In next steps, the inventors plan to develop antibody-drug conjugates and chimeric antigen receptors from our mAb for further therapeutic testing.
binder,measurement,value
B1,binding result,no binding
